# Laboratory results reported in publication PMC4615771.
# Residue numbers refer to the chain shown, from its start.
# T1: PTOV1 eATmut (Homo sapiens, UniProt Q86YD1 1-43, R20D;R22D)
# T1 chain: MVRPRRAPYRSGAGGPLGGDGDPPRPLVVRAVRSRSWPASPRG
# T2: GPBP1 eAT-hook (eAT) (Homo sapiens, UniProt D4PHA4 38-80)
# T2 chain: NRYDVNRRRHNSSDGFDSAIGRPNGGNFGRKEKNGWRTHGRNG
# T3: GPBP1 eATmut (Homo sapiens, UniProt D4PHA4 38-80, R59D)
# T3 chain: T2 chain with R22D
# B1: rDNA En (gel shift) (dsDNA)
# DNA 1: TGGATCTTTTTTTTTTTTTTTCTTTTTTCCTCCA
# DNA 2: TGGAGGAAAAAAGAAAAAAAAAAAAAAAGATCCA
# B2: RNA1 (structured_RNA)
# RNA: AGUUCCAUGAUGUUUUCAAACUCUAUUACCUACAUUAUUUGAAC
# B3: rDNA En (MST) (dsDNA)
# DNA 1: TCTTTTTTTTTTTTTTTCTTTTTTCCTCC
# DNA 2: GGAGGAAAAAAGAAAAAAAAAAAAAAAGA
# B4: RNA2 (structured_RNA)
# RNA: GAGAAACCGUGUAAACAAAACAUAACUGAGAGG
# Columns and labels:
# PTOV1 eATmut [1] = molecular target: T1, PTOV1 eATmut; assay: EMSA
# GPBP1 eAT-hook (eAT) [2] = molecular target: T2, GPBP1 eAT-hook (eAT); assay: MST
# GPBP1 eAT-hook (eAT) [3] = molecular target: T2, GPBP1 eAT-hook (eAT); assay: MST competition
# GPBP1 eAT-hook (eAT) [4] = molecular target: T2, GPBP1 eAT-hook (eAT); assay: MST
# GPBP1 eATmut = molecular target: T3, GPBP1 eATmut; assay: MST
# PTOV1 eATmut [5] = molecular target: T1, PTOV1 eATmut; assay: MST
binder,measurement,setting,value
B1,binding result,PTOV1 eATmut [1],no binding
B2,apparent K (half saturation),GPBP1 eAT-hook (eAT) [2],378 ± 18 nM
same,apparent K (half saturation),GPBP1 eAT-hook (eAT) [3],373 ± 19 nM
B3,apparent K (half saturation),GPBP1 eAT-hook (eAT) [4],7 ± 1.7 µM
same,binding result,GPBP1 eATmut,no binding
same,binding result,PTOV1 eATmut [5],no binding
B4,apparent K (half saturation),GPBP1 eAT-hook (eAT) [2],938 ± 92 nM
